The target in data set [1] is Cys149. Particulars: cited from earlier work.
The target of data set [2] is Cys149 (position 149, …). The data set is described as follows: chemical modification. Particulars: 25 °C; not stated (10 mM buffers); 10 mM sodium acetate (pH 4-5), 10 mM MES (pH 5.5-6.5), 10 mM Tris/HCl (pH 7-9); Native reduced enzyme at 2.8 uM, with no substrate or NAD+ added. Cofactor occupancy is not stated.
The target in data set [3] is Cys149 (UniProt position 150, …). Particulars: cited from earlier work.

Here are results for three proteins from publication PMC6325607.

B1: Glyceraldehyde-3-phosphate dehydrogenase (GAPDH) (Geobacillus stearothermophilus (Bacillus stearothermophilus)) (protein)
chain: AVKVGINGFGRIGRNVFRAALKNPDIEVVAVNDLTDANTLAHLLKYDSVHGRLDAEVSVNGNNLVVNGKEIIVKAERDPENLAWGEIGVDIVVESTGRFTKREDAAKHLEAGAKKVIISAPAKNEDITIVMGVNQDKYDPKAHHVISNASCTTNCLAPFAKVLHEQFGIVRGMMTTVHSYTNDQRILDLPHKDLRRARAAAESIIPTTTGAAKAVALVLPELKGKLNGMAMRVPTPNVSVVDLVAELEKEVTVEEVNAALKAAAEGELKGILAYSEEPLVSRDYNGSTVSSTIDALSTMVIDGKMVKVVSWYDNETGYSHRVVDLAAYIASKGL
What is called pKa is the pH at which an ionisable group is half protonated. In the case of B1, in data set [1], the pKa is on record as 5.92.

B2: Glyceraldehyde-3-phosphate dehydrogenase GapA (CbGAPDH) (Citrobacter sp. S-77) (protein)
chain: TIKVGINGFGRIGRIVFRAAQERSDIEIVAINDLLDADYMAYMLKYDSTHGRFNGSVEVKDGHLIVNGKKIRVTAERDPANLKWDEVGVDVVAEATGLFLTDETARKHITAGAKKVVLTGPSKDNTPMFVKGANFDKYEGQDIVSNASCTTNCLAPLAKVINDNFGIIEGLMTTVHATTATQKTVDGPSHKDWRGGRGAAQNIIPSSTGAAKAVGKVLPELNGKLTGMAFRVPTPNVSVVDLTVRLEKAASYEEIKKAIKAASEGPMKGVLGYTEDDVVSTDFNGEVCTSVFDAKAGIALNDNFVKLVSWYDNETGYSNKVLDLIAHISK
In the case of B2, in data set [2], the pKa came to 5.82 ± 0.05.

B3: Glyceraldehyde-3-phosphate dehydrogenase A (GAPDH) (Escherichia coli) (protein)
chain: TIKVGINGFGRIGRIVFRAAQKRSDIEIVAINDLLDADYMAYMLKYDSTHGRFDGTVEVKDGHLIVNGKKIRVTAERDPANLKWDEVGVDVVAEATGLFLTDETARKHITAGAKKVVMTGPSKDNTPMFVKGANFDKYAGQDIVSNASCTTNCLAPLAKVINDNFGIIEGLMTTVHATTATQKTVDGPSHKDWRGGRGASQNIIPSSTGAAKAVGKVLPELNGKLTGMAFRVPTPNVSVVDLTVRLEKAATYEQIKAAVKAAAEGEMKGVLGYTEDDVVSTDFNGEVCTSVFDAKAGIALNDNFVKLVSWYDNETGYSNKVLDLIAHISK
Regarding B3, the pKa in data set [3] is given as 5.70.
